Results on 12 molecules are retold here after patent publication US20110124564A1, “NUCLEOLIN-BINDING PEPTIDES, NUCLEOLIN- BINDING LYTIC PEPTIDES, FUSION CONSTRUCTS AND METHODS OF MAKING AND USING SAME” (ESPERANCE PHARMACEUTICALS, INC., published 2011).

In series [1] the test system is MDA-MB-435S breast cancer cells. The format is cell-based, human. As to the method:
Twelve different fusion constructs were analyzed for anti-cancer activity in vitro against MDA-MB-435S breast cancer cells and for hemolytic activity in vitro to human red blood cells. Fusion constructs of the following sequence were tested:
(§1) The peptide conjugates were freshly dissolved in saline and added into cancer cell seeded multi-well plates at increasing concentrations of 0, 0.001, 0.01, 0.1, 1, 2, 5, 10 and 100 μM. Incubations were conducted for 4 h at 37° C. Cell viability was determined using formazan conversion assays (MTT assays). Controls were treated with USP saline or 0.1% TritonX-100™ as reference for 0 and 100% cell death, respectively. Cytotoxicity was evaluated as an IC50 value.

In series [2] the test system is human red blood cells. Put plainly: Hemolytic activity. The format is cell-based. As to the method:
Hemolytic activity was studied by incubating the fusion constructs with human red blood cells at concentrations of 0.01, 0.1, 1, 10 and 50 μM for 2 hours. Saline and 0.1% Triton served as controls.
Hemolytic activity of the compounds was studied by incubating EP-301 and EP-302 with human red blood cells at concentrations of 0.01, 0.1, 1, 10 and 50 μM for 2 hours.

Series [3] concerns MDA-MB-435S breast cancer cells. The format is cell-based, human. Conditions: 24 h. As to the method:
as §1, with “EP-301 and EP-302 were analyzed for anti-cancer activity in vitro in a time course experiment against MDA-MB-435S breast cancer cells. EP-301 and EP-302” for “The peptide conjugates”, “0.25, 0.5, 1, 2, 4, 6 h or 24” for “4”, “value derived for EP-301 and EP-302 at each time point.” for “value.”

For series [4], the target named is T1, nucleolin expressed on the surface of human cancer cell lines (human, UniProt P19338). Put plainly: cell-based or functional assay.
Series [5] concerns the target nucleolin on CHO (Hamster Ovary) cells (hamster).
In series [6] the target is T1, nucleolin expressed on the surface of …. Kind of series: cell-based or functional assay. This is another data set of the same source.
Series [7] has the same target. Kind of series: cell-based or functional assay. This is another data set of the same source.
Series [8] has the same target. Put plainly: cell-based or functional assay. This is another data set of the same source.

By IC50 is commonly meant the point on the concentration scale where inhibition reaches its midpoint.

Like-named read-outs stand apart in the source and are kept apart here. Residues, ends and D or L forms follow the SMILES beside them.

Consider `CC(C)C[C@H](NC(=O)[C@H](CCCNC(=N)N)NC(=O)[C@H](C)NC(=O)[C@H](CO)NC(=O)[C@H](CCCNC(=N)N)NC(=O)[C@H](CCCNC(=N)N)NC(=O)[C@H](CCC(N)=O)NC(=O)[C@H](CC(C)C)NC(=O)[C@H](CCCNC(=N)N)NC(=O)[C@H](CCCCN)NC(=O)[C@H](C)NC(=O)[C@H](Cc1ccccc1)NC(=O)[C@H](CCCCN)NC(=O)[C@H](CCCCN)NC(=O)[C@H](C)NC(=O)[C@H](Cc1ccccc1)NC(=O)[C@H](CCCCN)NC(=O)[C@H](C)NC(=O)[C@H](Cc1ccccc1)NC(=O)[C@H](CCCCN)NC(=O)[C@H](CCCCN)NC(=O)[C@H](C)NC(=O)[C@H](Cc1ccccc1)NC(=O)[C@H](CCCCN)NC(=O)[C@H](C)NC(=O)[C@H](Cc1ccccc1)NC(=O)[C@@H](N)CCCCN)C(=O)N[C@@H](CO)C(=O)N[C@@H](C)C(=O)N[C@@H](CCCCN)C(=O)O` (H-KFAKFAKKFAKFAKKFAKRLQRRSARLSAK-OH), for which the IC50 in series [1] (MDA-MB-435S, 4 h at 37° C, MTT, read-out: IC50) is 2.2 ± 0.3 µM. For the same molecule, the HA50 was determined as 56 µM in series [2] (human red blood cells, 2 hours) and 56 ± 8.5 µM in series [2] (human red blood cells, 2 hours, listed as KFAKFAKKFAKFAICKFAKR19LQRRSARLSAK30).
Molecule `CC(C)C[C@H](NC(=O)[C@H](CCCNC(=N)N)NC(=O)[C@H](C)NC(=O)[C@@H](NC(=O)[C@H](CCCCN)NC(=O)[C@H](C)NC(=O)[C@H](Cc1ccccc1)NC(=O)[C@H](CCCCN)NC(=O)[C@H](CCCCN)NC(=O)[C@H](C)NC(=O)[C@H](Cc1ccccc1)NC(=O)[C@H](CCCCN)NC(=O)[C@H](C)NC(=O)[C@H](Cc1ccccc1)NC(=O)[C@H](CCCCN)NC(=O)[C@H](CCCCN)NC(=O)[C@H](C)NC(=O)[C@H](Cc1ccccc1)NC(=O)[C@H](CCCCN)NC(=O)[C@H](C)NC(=O)[C@H](Cc1ccccc1)NC(=O)[C@@H](N)CCCCN)C(C)C)C(=O)N[C@@H](CCC(N)=O)C(=O)N[C@@H](CCCNC(=N)N)C(=O)N[C@@H](CCCNC(=N)N)C(=O)N[C@@H](Cc1ccccc1)C(=O)N[C@@H](C)C(=O)O` (H-KFAKFAKKFAKFAKKFAKVARLQRRFA-OH) gave an IC50 in series [1] (4 h) of 0.8 ± 0.16 µM. Moreover, the HA50 result in series [2] is reported as “Not hemolytic”.
On to `CC(C)C[C@H](NC(=O)[C@H](CCCNC(=N)N)NC(=O)[C@H](C)NC(=O)[C@H](CO)NC(=O)[C@H](CCCNC(=N)N)NC(=O)[C@H](CCCNC(=N)N)NC(=O)[C@H](CCC(N)=O)NC(=O)[C@@H]1CCCN1C(=O)[C@H](CCC(=O)O)NC(=O)[C@H](CC(=O)O)NC(=O)[C@H](CCCCN)NC(=O)[C@H](CCCCN)NC(=O)[C@H](C)NC(=O)[C@H](Cc1ccccc1)NC(=O)[C@H](CCCCN)NC(=O)[C@H](CCCCN)NC(=O)[C@H](C)NC(=O)[C@H](Cc1ccccc1)NC(=O)[C@H](CCCCN)NC(=O)[C@H](C)NC(=O)[C@H](Cc1ccccc1)NC(=O)[C@H](CCCCN)NC(=O)[C@H](CCCCN)NC(=O)[C@H](C)NC(=O)[C@H](Cc1ccccc1)NC(=O)[C@H](CCCCN)NC(=O)[C@H](C)NC(=O)[C@H](Cc1ccccc1)NC(=O)[C@@H](N)CCCCN)C(=O)N[C@@H](CO)C(=O)N[C@@H](C)C(=O)N[C@@H](CCCCN)C(=O)O` [EP-301] (H-KFAKFAKKFAKFAKKFAKKDEPQRRSARLSAK-OH), for which the IC50 in series [3] was 12 µM; in series [1] (4 h), 64.8 µM. Moreover, the HA50 entry in series [2] was “Not hemolytic”.
On to RARLQRRSARLS [R1ARLQRRSARLS12], for which the “IC50 of cytotoxicity (MTT), MDA-MB-435S breast cancer cells, 120 h” value (“IC50 of cytotoxicity (MTT) … 120 h” for short) in series [4] is 6.5 µM.
In series [5], KFAKFAKKFAKFAKKFAKRARLQRRSARLSAK [EP-302] yielded an IC50 of cytotoxicity (MTT), CHO (Hamster Ovary) cells, 6 h of 3.1 µM and an IC50 of cytotoxicity (MTT), CHO (Hamster Ovary) cells, 24 h of 3.7 µM. In addition, the “IC50 of cytotoxicity (MTT), MDA-MB-435S breast cancer cells, time course, 30 minutes” value in series [6] worked out at 2.3 µM. Besides, the “IC50 of cytotoxicity (MTT), MDA-MB-435S breast cancer cells, 4 h” value in series [7] was 0.9 µM. Moreover, in series [8], the “IC50 of cytotoxicity (MTT), A549 (Lung) cells, 6 h” value was 4.3 µM; the “IC50 of cytotoxicity (MTT), A549 (Lung) cells, 24 h” value is 2.4 µM; the “IC50 of cytotoxicity (MTT), DU145 (Prostate) cells, 6 h” value worked out at 3.1 µM; the “IC50 of cytotoxicity (MTT), DU145 (Prostate) cells, 24 h” value worked out at 5.1 µM. In series [8], the “IC50 of cytotoxicity (MTT), Daudi (NHL) cells, 6 h” value came to 3.2 µM; the “IC50 of cytotoxicity (MTT), Daudi (NHL) cells, 24 h” value amounted to 2.5 µM; the “IC50 of cytotoxicity (MTT), HL60 (Acute Myeloid Leukemia) cells, 24 h” value worked out at 0.5 µM; the “IC50 of cytotoxicity (MTT), HT 29 (Colon) cells, 6 h” value is 45.8 µM. Besides, in series [8], the “IC50 of cytotoxicity (MTT), HT 29 (Colon) cells, 24 h” value turned out to be 26.2 µM; the “IC50 of cytotoxicity (MTT), HT 116(Colon) cells, 6 h” value was 6.7 µM; the “IC50 of cytotoxicity (MTT), HT 116(Colon) cells, 24 h” value came out at 4.8 µM; the “IC50 of cytotoxicity (MTT), K562 (Chronic Myeloid Leukemia) cells, 24 h” value was 2.8 µM. For the same molecule, in series [8], the “IC50 of cytotoxicity (MTT), LoVo (Colon) cells, 6 h” value was found to be 14.1 µM; the “IC50 of cytotoxicity (MTT), LoVo (Colon) cells, 24 h” value amounted to 12.5 µM; the “IC50 of cytotoxicity (MTT), MCF-7 (Breast) cells, 6 h” value is 5.5 µM; the “IC50 of cytotoxicity (MTT), MCF-7 (Breast) cells, 24 h” value worked out at 6.4 µM. In addition, in series [8], the “IC50 of cytotoxicity (MTT), MDA-MB-231 (Breast) cells, 6 h” value came out at 4.6 µM; the “IC50 of cytotoxicity (MTT), MDA-MB-231 (Breast) cells, 24 h” value is 3.6 µM; the “IC50 of cytotoxicity (MTT), MDA-MB-435S (Breast) cells, 6 h” value was 1.4 µM; the “IC50 of cytotoxicity (MTT), MDA-MB-435S (Breast) cells, 24 h” value was 1.7 µM. Further, in series [8], the “IC50 of cytotoxicity (MTT), MV4-11(Acute Myeloid Leukemia) cells, 24 h” value was 0.5 µM; the “IC50 of cytotoxicity (MTT), MiaPaCa (Pancreas) cells, 6 h” value came out at 2.1 µM; the “IC50 of cytotoxicity (MTT), MiaPaCa (Pancreas) cells, 24 h” value was 1.9 µM; the “IC50 of cytotoxicity (MTT), OVCAR-3 (Ovary) cells, 6 h” value is 5.2 µM. For the same molecule, in series [8], the “IC50 of cytotoxicity (MTT), PC-3 (Prostate) cells, 6 h” value is 3.3 µM; the “IC50 of cytotoxicity (MTT), PC-3 (Prostate) cells, 24 h” value stood at 3.2 µM; the “IC50 of cytotoxicity (MTT), SKOV-3 (Ovary) cells, 6 h” value worked out at 5.1 µM; the “IC50 of cytotoxicity (MTT), SKOV-3 (Ovary) cells, 24 h” value is 5.2 µM.
For the molecule KFAKFAKKFAKFAKKFAKKDEPQRRSARLSAK [EP-301], in series [6], the “IC50 of cytotoxicity (MTT), MDA-MB-435S breast cancer cells, time course, 30 minutes” value was 48 µM; the “IC50 of cytotoxicity (MTT), MDA-MB-435S breast cancer cells, time course, 6 h” value was above 40 µM; the “IC50 of cytotoxicity (MTT), MDA-MB-435S breast cancer cells, time course, 24 h” value was 12 µM. Further, in series [7], the “IC50 of cytotoxicity (MTT), MDA-MB-435S breast cancer cells, 4 h” value was found to be 64.8 µM.
As to HAHLQRRSARLSAK [H1AHLQRRSARLSAK14], the “IC50 of cytotoxicity (MTT) … 120 h” value in series [4] amounted to 4.7 µM.
On the same count and under the same terms, as for RARLQRRSARLSAK, the figure is 2.4 µM; as for RVRLQRRSARLSAK [R1VRLQRRSARLSAK14], 1.9 µM; as for KDEPQRRSARLSAK [F3-14 mer fragment], 11.1 µM.
For RARLQRRSARL [R1ARLQRRSARL11], the “IC50 of cytotoxicity (MTT) … 120 h” value in series [4] was determined as 5.4 µM.
Turning to HARLQRRSARLSAK [H1ARLQRRSARLSAK14], the “IC50 of cytotoxicity (MTT) … 120 h” value in series [4] was 3.2 µM.
